Here are results for four molecules from EP1496124A1 (Oklahoma Medical Research Foundation, dated 2005).

In test [1] the target is T1, recombinant memapsin 2 (human, UniProt P56817 14-454, limits assumed).
T1 construct: also called M2; beta-secretase
The test is described as follows: enzyme inhibition with a synthetic fluorogenic peptide substrate.

The target in test [2] is M2pd (modified M2 containing amino acids from Ala-8P to Ala326) (human) (UniProt P56817). In words: cell-based or functional assay.
The target in test [3] is T1, recombinant memapsin 2. In words: comparison of inhibition constants.
Test [4] concerns the target T1, recombinant memapsin 2. In words: Ki as stated in the crystallisation example; assay not described there.

Ends that are not written are not given here.

What is called Ki is a dissociation constant, usually derived from enzyme kinetics or from competition with a known ligand.

T1 sequence (P56817 14-454 limits assumed): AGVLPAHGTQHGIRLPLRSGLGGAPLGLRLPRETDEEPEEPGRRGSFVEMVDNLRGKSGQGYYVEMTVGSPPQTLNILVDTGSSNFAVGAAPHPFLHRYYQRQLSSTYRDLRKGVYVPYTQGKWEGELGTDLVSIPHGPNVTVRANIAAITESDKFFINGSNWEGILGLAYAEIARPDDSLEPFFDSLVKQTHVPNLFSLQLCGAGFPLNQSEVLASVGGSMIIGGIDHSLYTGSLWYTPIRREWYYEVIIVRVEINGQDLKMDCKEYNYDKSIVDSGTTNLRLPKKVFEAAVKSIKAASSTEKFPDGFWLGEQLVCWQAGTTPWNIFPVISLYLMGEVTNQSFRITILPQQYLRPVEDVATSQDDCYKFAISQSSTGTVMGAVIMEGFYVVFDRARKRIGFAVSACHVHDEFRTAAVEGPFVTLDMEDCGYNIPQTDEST
Chain of M2pd (modified M2 containing amino acids from Ala-8P to Ala326) (human) (P56817 22-501 limits assumed): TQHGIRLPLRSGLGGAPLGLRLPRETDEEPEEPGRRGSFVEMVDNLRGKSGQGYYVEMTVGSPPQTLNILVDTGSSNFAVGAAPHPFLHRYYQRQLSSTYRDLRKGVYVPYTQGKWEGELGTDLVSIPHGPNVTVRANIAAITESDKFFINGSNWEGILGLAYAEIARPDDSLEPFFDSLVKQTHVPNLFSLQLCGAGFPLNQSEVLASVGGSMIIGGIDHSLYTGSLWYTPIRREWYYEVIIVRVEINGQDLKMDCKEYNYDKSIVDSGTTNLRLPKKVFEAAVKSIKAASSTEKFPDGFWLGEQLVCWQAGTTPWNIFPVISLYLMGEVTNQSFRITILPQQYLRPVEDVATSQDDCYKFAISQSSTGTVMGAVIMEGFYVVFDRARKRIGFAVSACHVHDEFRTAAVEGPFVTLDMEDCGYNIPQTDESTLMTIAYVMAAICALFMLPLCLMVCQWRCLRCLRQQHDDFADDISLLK

For OM99-1 (peptide), the inhibitory constant (Ki) with recombinant memapsin 2 [1] was 30 nM.
Regarding Pepstatin A (peptide), the IC50 (inhibition of enzyme activity) in test [2] was 0.3 mM.
Turning to VNLAAEF (also: Leu3-Ala4 bond replaced by hydroxyethylene isostere -CH(OH)-CH2-) [OM99-2 with P4 Glu absent], in the test with recombinant memapsin 2 [3], the fold increase in Ki against OM99-2 is 10 fold.

B1: OM99-2 (peptide)
peptide: EVNLAAEF
modifications: also: Leu4-Ala5 peptide bond replaced by hydroxyethylene isostere -CH(OH)-CH2-
notes: Synthetic substrate analogue based on the beta-secretase site of Swedish mutant APP
Regarding B1, the Ki in the test with recombinant memapsin 2 [4] is 10 nM.
